# Measurements: article PMC3834829, “A signature motif mediating selective interactions of BCL11A with the NR2E/F subfamily of orphan nuclear receptors” (Nucleic Acids Research, 2013)
# B1: AAD-COUP-TFII-LBD-(144–414) [not stated] / LexA-COUP-TFII-LBD-(144–414) [not stated] (parent)
# chain 1: MRREAVQRGRMPPTQPTHGQFALTNGDPLNCHSYLSGYISLLLRAEPYPTSRFGSQCMQPNNIMGIENICELAARMLFSAVEWARNIPFFPDLQITDQVALLRLTWSELFVLNAAQCSMPLHVAPLLAAAGLHASPMSADRVVAFMDHIRIFQEQVEKLKALHVDSAEYSCLKAIVLFTSDACGLSDVAHVESLQEKSQCALEEYVRSQYPNQPTRFGKLLLRLPSLRTVSSSVIEQLFFVRLVGKTPIETLIRDMLLSGSSFNWPYMAIQ
# chain 2: B1 chain 1
# Variants of: B1
# Test: yeast two-hybrid
# Conditions: with LexA-COUP-TFII-LBD-(144–414);; read off a plot
row,response,Variant
1,460 nmol/mg/min,chain 1 MRREAVQRGRMPPTQPTHGQFALTNGDPLNCHSYLSGYISLLLRAEPYPTSRFGSQCMQPNNIMGIENICELAARMLFSAVEWARNIPFFPDLQITDQAALLRLTWSELFVLNAAQCSMPLHVAPLLAAAGLHASPMSADRVVAFMDHIRIFQEQVEKLKALHVDSAEYSCLKAIVLFTSDACGLSDVAHVESLQEKSQCALEEYVRSQYPNQPTRFGKLLLRLPSLRTVSSSVIEQLFFVRLVGKTPIETLIRDMLLSGSSFNWPYMAIQ [chain 1 V99A]
2,470 nmol/mg/min,chain 1 MRREAVQRGRMPPTQPTHGQFALTNGDPLNCHSYLSGYISLLLRAEPYPTSRFGSQCMQPNNIMGIENICELAARMLFSAVEWARNIPFFPDLQITDQVALLALTWSELFVLNAAQCSMPLHVAPLLAAAGLHASPMSADRVVAFMDHIRIFQEQVEKLKALHVDSAEYSCLKAIVLFTSDACGLSDVAHVESLQEKSQCALEEYVRSQYPNQPTRFGKLLLRLPSLRTVSSSVIEQLFFVRLVGKTPIETLIRDMLLSGSSFNWPYMAIQ [chain 1 R103A]

# The next lines start with the variant.
row,Variant,response
1,chain 1 MRREAVQRGRMPPTQPTHGQFALTNGDPLNCHSYLSGYISLLLRAEPYPTSRFGSQCMQPNNIMGIENICELAARMLFSAVEWAANIPFFPDLQITDQVALLRLTWSELFVLNAAQCSMPLHVAPLLAAAGLHASPMSADRVVAFMDHIRIFQEQVEKLKALHVDSAEYSCLKAIVLFTSDACGLSDVAHVESLQEKSQCALEEYVRSQYPNQPTRFGKLLLRLPSLRTVSSSVIEQLFFVRLVGKTPIETLIRDMLLSGSSFNWPYMAIQ [chain 1 R85A],390 nmol/mg/min
2,chain 1 MRREAVQRGRMPPTQPTHGQFALTNGDPLNCHSYLSGYISLLLRAEPYPTSRFGSQCMQPNNIMGIENICELAARMLASAVEWARNIPFFPDLQITDQVALLRLTWSELFVLNAAQCSMPLHVAPLLAAAGLHASPMSADRVVAFMDHIRIFQEQVEKLKALHVDSAEYSCLKAIVLFTSDACGLSDVAHVESLQEKSQCALEEYVRSQYPNQPTRFGKLLLRLPSLRTVSSSVIEQLFFVRLVGKTPIETLIRDMLLSGSSFNWPYMAIQ [chain 1 F78A],410 nmol/mg/min
3,chain 1 MRREAVQRGRMPPTQPTHGQFALTNGDPLNCHSYLSGYISLLLRAEPYPTSRFGSQCMQPNNIMGIENICELAARMLFSAVEWARNIPFFPDLQATDQVALLRLTWSELFVLNAAQCSMPLHVAPLLAAAGLHASPMSADRVVAFMDHIRIFQEQVEKLKALHVDSAEYSCLKAIVLFTSDACGLSDVAHVESLQEKSQCALEEYVRSQYPNQPTRFGKLLLRLPSLRTVSSSVIEQLFFVRLVGKTPIETLIRDMLLSGSSFNWPYMAIQ [chain 1 I95A],500 nmol/mg/min
